From patent publication US20140255414A1 (PROBIODRUG, published 2014) come the findings set out here.

Square brackets hold non-standard residues; d marks the D form. pGlu = O=C1CC[C@@H](C(=O)O)N1; PEG = not defined here

Experiment [1] addresses T1, CCL8 (known as MCP-2) pyroglutamate-peptide (UniProt P80075 24-99, limits assumed, N-terminal pyroglutamate).
T1 sequence (peptide, looked up): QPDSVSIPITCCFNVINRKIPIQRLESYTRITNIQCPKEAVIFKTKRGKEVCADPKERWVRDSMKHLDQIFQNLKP
As to the kind of experiment: SPR, peptide immobilized on CM5 chip (data not shown). For orientation: Surface plasmon resonance follows binding to a sensor surface in real time, without labels.

Experiment [2] addresses T2, big gastrin pyroglutamate-peptide (UniProt P01350 59-92, N-terminal pyroglutamate).
T2 peptide (looked up): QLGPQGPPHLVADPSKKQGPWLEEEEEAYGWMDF
The experiment is described as above.

For experiment [3], the target named is T3, gonadoliberin pyroglutamate-peptide (UniProt P01148 24-33, N-terminal pyroglutamate).
T3 peptide (looked up): QHWSYGLRPG
Described as above.

In experiment [4] the target is neurotensin pyroglutamate-peptide (UniProt P30990 151-163, N-terminal pyroglutamate). The description is as above.
For experiment [5], the target named is T4, orexin A pyroglutamate-peptide (UniProt O43612 34-66, N-terminal pyroglutamate).
T4 peptide (looked up): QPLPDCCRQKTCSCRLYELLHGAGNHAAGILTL
Described as above.

The target of experiment [6] is CCL2 (known as MCP-1) pyroglutamate-peptide (UniProt P13500 24-99, limits assumed, N-terminal pyroglutamate). The experiment is described as above.
CCL2 (known as MCP-1) pyroglutamate-peptide, sequence (P13500 24-99 limits assumed): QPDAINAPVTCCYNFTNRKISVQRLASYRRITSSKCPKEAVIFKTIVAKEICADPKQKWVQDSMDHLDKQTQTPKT
The target of experiment [7] is T5, AβpE(3-40) peptide (N-terminal pyroglutamate (Aβ position 3)).
T5 construct: Immobilized on a CM5 chip at 1830 RU; also called Aβ3(pE); Aβ N3pE-40
T5 sequence (peptide, as listed by the source): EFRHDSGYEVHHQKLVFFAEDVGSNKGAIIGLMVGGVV
As to the kind of experiment: SPR, 1 µg/ml antibody over immobilized AβpE(3-40) against immobilized AβpE(11-30).

In experiment [8] the target is T6, Aβ(pE11-18)-PEG peptide (reading uncertain).
T6 construct: The PEG attachment is not described further
T6 peptide: [pGlu]VHHQKLV-{PEG}
In words: ITC at 20 °C, peptide titrated into antibody eluted with KSCN gradient (KD=1/KA). As to the method: (§1) For the ITC experiment, the peptide Aβ(pE11-18)-PEG was used because the hydrophilic PEG group imparts hydrophilic properties and so it was possible to dissolve the peptide directly in ITC buffer. Former experiments with Aβ(pE11-20) could only be performed with 1-2% DMSO, due to the strong hydrophobicity of the peptide it was necessary to dissolve it with DMSO which could have an effect on the ITC binding properties. At first the antibody was dialyzed against ITC buffer (150 mM NaCl, 25 mM Na₂HPO₄, 25 mM KH₂PO₄, 1 mM EDTA, pH=7.1) over night at 4° C. The lyophilised peptide, stored at −20° C., was dissolved in identical ITC buffer pH=7.1 which was used for antibody dialysis. Both antibody and antigen must be in identical solutions, otherwise large heats of dilution will mask the desired observation. Before the ITC experiment, the concentration of antibody was determined by UV/VIS spectroscopy (see section 1.3.1). […] Furthermore the heat of reaction was determined which was only generated by dilution of the antigen through the titration into ITC buffer (pH=7.1). […]
(§2) To characterize the binding of anti Aβ11(pE) antibody at the Aβ(pE11-18)-PEG peptide the method of Isothermal Titration calorimetry (ITC) was used (see section 1.3.4). The antibody which was eluted from protein G column with KSCN-gradient (pH 7.0) and 0.1 M glycine-HCl (pH 2.7) was analyzed.

Experiment [9] addresses T6, Aβ(pE11-18)-PEG peptide. As to the kind of experiment: ITC at 20 °C, peptide titrated into antibody eluted with 0.1 M glycine-HCl pH 2.7. As to the method:
For the ITC experiment, the peptide Aβ(pE11-18)-PEG was used because the hydrophilic PEG group imparts hydrophilic properties and so it was possible to dissolve the peptide directly in ITC buffer. Former experiments with Aβ(pE11-20) could only be performed with 1-2% DMSO, due to the strong hydrophobicity of the peptide it was necessary to dissolve it with DMSO which could have an effect on the ITC binding properties. At first the antibody was dialyzed against ITC buffer (150 mM NaCl, 25 mM Na₂HPO₄, 25 mM KH₂PO₄, 1 mM EDTA, pH=7.1) over night at 4° C. The lyophilised peptide, stored at −20° C., was dissolved in identical ITC buffer pH=7.1 which was used for antibody dialysis. Both antibody and antigen must be in identical solutions, otherwise large heats of dilution will mask the desired observation. Before the ITC experiment, the concentration of antibody was determined by UV/VIS spectroscopy (see section 1.3.1). At first the antibody with e.g. 5.13 μM (see Table 4) was added into the sample cell and the reference cell was filled with distilled water. Then the antigen was injected into the sample cell with e.g. 81.78 μM (see Table 4). The antigen should be generally in twofold excess to the antibody, bearing in mind that an antibody has two binding sites the antigen was in the cell at least in fourfold excess to the antibody. The 30 injections (1×2 μl and 29×10 μl) were made with a 4-min interval between subsequent injections. The measurement of heat of reaction was performed at 20° C. Furthermore the heat of reaction was determined which was only generated by dilution of the antigen through the titration into ITC buffer (pH=7.1). Therefore the antigen was injected into the sample cell filled with ITC buffer. […]
as §2

Experiment [10] addresses T6, Aβ(pE11-18)-PEG peptide. In words: ITC at 20 °C, peptide titrated into antibody eluted with 0.1 M glycine-HCl pH 2.7 (KD=1/KA). Here is the method: as §1, §2
Experiment [11] deals with T7, Aβ(pE11-20)-biotin.
T7 construct: Immobilized on streptavidin-coated microplates in the auto-Ig-ELISA
T7 peptide: [pGlu]VHHQKLVFF-biotin
As to the kind of experiment: ELISA: 200 ng/ml Aβ(pE11-20)-biotin on streptavidin plate, antibody 55-3500 pg/ml, detection with rabbit anti-mouse Ig's HRP, absorption 450/540 nm. As to the method:
Immobilization of 200 ng/ml Aβ(pE11-20)-biotin at streptavidin coated microplate (2 h, at RT). Blocking with 200 μl ELISA-Blocker (−T) 1 h at RT and followed by wash cycle (3×300 μl/well wash buffer). Standard anti Aβ11(pE) antibody (clone 13) was diluted in ELISA-Blocker (+T) in radix division from 3500 pg/ml down to 55 pg/ml and incubated 2 h at 4° C. A wash cycle followed and detection with polyclonal rabbit anti-mouse Ig's HRP 1 h at 4° C. After wash cycle TMB/H₂O₂ were added, incubated 30 min at RT (dark) and enzyme reaction was stopped with 1 M H₂SO₄. Absorption was measured at 450/540 nm at TECAN Sunrise.
A general note: In an ELISA, binding on a coated surface is turned into a signal by an enzyme label.

B1: monoclonal mouse anti Aβ11(pE) antibody Aβ 13-11-6 (clone 13), Deposit No. DSM ACC 3100 (antibody, V domains shown)
VH: QVQLQQPGTELVKPGASVKLSCKASGFTFTSYWMHWVRQRPGQGLEWIGEINPSNGRTNYNEKFKSKATLTVDKSSSTAYMQLSSLTSEDSEVYYCARGDLAWDWSAYWGQGTLVTVSA
VL: DIVMSQSPSSLAVSAGEKVTMSCKSSQSLFYSRTRKNYLAWYQQKPGQSPKLLIYWASTRESGVPDRFTGSGSGTDFTLTISSVQAEDLAVYYCKQSYNLWSFGGGTKLEIKR
notes: The KSCN-eluted and glycine-HCl-eluted preparations are the same molecule; also called pEVHH-59025 13-11-6; mAb mouse anti Aβ11(pE)
As for B1, the binding result in experiment [1], in experiment [2], in [3], in experiment [4], in experiment [5] and in experiment [6] was “no binding (tested: 1 µg/ml antibody)” each time. Also, the binding result in experiment [11] was “binds”. The “cross reactivity relative to AβpE(11-30)” value in experiment [7] stood at 4 magnitudes lower. Also, the Kd – broadly, the free concentration of one partner at which half of the binding sites on the other are occupied at equilibrium, for simple one-to-one binding – in [8] is 78.7 nM; in experiment [10], 105 nM. Further, the “-TΔS” value in experiment [9] is -1.36 kcal/mol. The Ka in [9] worked out at 9.5e+06 M⁻¹. The “Stoichiometry (N)” value in experiment [9] came out at 1.01.
